Biological target: T1, type IV collagen α3-SmBiT (fusion protein having SmBiT at the C-terminal of wild-type type IV collagen α3(IV) … (Homo sapiens (Human), UniProt Q01955 43-1670))
T1 construct: also called α3 chain; COL4A3 in pFC36K SmBiT vector
Assay: split luciferase (NanoBiT) luminescence in culture supernatant of HEK293T cells co-expressing the domain-deleted α5 fusion with α3 and α4 chains

T1 sequence (Q01955 other isoform, or with tags, fused parts or gaps): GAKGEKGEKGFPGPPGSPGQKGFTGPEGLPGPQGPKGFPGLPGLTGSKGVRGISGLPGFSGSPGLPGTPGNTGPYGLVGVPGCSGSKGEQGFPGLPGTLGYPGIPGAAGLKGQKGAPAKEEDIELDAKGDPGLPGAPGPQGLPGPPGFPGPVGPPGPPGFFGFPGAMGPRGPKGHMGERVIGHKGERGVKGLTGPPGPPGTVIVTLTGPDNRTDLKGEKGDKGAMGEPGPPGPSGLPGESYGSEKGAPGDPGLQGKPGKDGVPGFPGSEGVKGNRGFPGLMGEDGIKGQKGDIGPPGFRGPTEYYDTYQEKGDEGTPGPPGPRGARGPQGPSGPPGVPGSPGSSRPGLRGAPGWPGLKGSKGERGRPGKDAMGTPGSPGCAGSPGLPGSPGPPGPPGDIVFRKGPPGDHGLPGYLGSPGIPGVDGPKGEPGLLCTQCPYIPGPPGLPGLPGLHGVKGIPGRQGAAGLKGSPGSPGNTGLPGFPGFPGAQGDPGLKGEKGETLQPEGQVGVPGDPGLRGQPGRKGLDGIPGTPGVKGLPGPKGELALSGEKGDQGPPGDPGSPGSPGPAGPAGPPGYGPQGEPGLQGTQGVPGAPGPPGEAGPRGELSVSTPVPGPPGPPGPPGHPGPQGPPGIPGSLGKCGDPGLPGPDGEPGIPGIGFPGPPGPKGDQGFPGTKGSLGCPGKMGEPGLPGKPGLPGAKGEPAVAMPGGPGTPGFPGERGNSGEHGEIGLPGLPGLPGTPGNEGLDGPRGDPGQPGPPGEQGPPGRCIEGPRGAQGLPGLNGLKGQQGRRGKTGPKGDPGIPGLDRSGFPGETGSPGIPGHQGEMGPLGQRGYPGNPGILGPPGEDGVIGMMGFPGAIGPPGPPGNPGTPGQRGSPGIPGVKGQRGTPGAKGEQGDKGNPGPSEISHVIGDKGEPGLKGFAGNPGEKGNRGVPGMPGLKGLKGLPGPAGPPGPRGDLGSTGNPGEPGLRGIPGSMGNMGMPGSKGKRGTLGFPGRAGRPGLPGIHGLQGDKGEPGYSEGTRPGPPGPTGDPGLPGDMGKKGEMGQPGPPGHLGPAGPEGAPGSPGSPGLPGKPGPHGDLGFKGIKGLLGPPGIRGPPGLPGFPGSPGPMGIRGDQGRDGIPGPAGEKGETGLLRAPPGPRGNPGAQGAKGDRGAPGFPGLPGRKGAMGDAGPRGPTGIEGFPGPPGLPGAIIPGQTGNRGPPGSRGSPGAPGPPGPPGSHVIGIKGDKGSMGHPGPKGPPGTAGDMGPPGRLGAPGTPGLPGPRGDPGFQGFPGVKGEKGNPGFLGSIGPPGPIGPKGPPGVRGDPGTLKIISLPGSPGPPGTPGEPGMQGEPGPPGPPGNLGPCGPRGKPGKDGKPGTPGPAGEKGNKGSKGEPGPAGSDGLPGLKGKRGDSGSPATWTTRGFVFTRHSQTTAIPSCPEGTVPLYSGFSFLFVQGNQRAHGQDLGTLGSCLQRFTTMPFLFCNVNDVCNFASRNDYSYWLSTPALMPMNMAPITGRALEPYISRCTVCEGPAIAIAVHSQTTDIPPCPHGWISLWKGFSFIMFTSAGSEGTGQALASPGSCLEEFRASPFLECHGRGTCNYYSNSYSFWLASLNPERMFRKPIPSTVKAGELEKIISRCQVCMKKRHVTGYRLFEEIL

binding result: no binding
B1: fusion protein having a split luciferase fragment at the C terminal of the NC1 domain of wild-type α5 chain (COL domain-deleted α5 chain) (other)
chain: GFLITRHSQTTDAPQCPQGTLQVYEGFSLLYVQGNKRAHGQDLGTAGSCLRRFSTMPFMFCNINNVCNFASRNDYSYWLSTPEPMPMSMQPLKGQSIQPFISRCAVCEAPAVVIAVHSQTIQIPHCPQGWDSLWIGYSFMMHTSAGAEGSGQALASPGSCLEEFRSAPFIECHGRGTCNYYANSYSFWLATVDVSDMFSKPQSETLKAGDLRTRISRCQVCMKRTMVFTLEDFVGDWEQTAAYNLDQVLEQGGVSSLLQNLAVSVTPIQRIVRSGENALKIDIHVIIPYEGLSADQMAQIEEVFKVVYPVDDHHFKVILPYGTLVIDGVTPNMLNYFGRPYEGIAVFDGKKITVTGTLWNGNKIIDERLITPDGSMLFRVTINS
notes: The residue range is converted from nucleotide numbers; also called 4COL (so in the source); probably ΔCOL
